{
  "source": "paper PMC3686486",
  "key": {"[1]": {"target": "Bacillus thuringiensis subsp. israelensis Cry11Aa toxin (Bacillus thuringiensis subsp. israelensis) (UniProt P21256)", "test": "ELISA"}, "[2]": {"target": "Bacillus thuringiensis subsp. israelensis Cry4Ba toxin (Bacillus thuringiensis subsp. israelensis)", "sequence (P05519 whole entry)": "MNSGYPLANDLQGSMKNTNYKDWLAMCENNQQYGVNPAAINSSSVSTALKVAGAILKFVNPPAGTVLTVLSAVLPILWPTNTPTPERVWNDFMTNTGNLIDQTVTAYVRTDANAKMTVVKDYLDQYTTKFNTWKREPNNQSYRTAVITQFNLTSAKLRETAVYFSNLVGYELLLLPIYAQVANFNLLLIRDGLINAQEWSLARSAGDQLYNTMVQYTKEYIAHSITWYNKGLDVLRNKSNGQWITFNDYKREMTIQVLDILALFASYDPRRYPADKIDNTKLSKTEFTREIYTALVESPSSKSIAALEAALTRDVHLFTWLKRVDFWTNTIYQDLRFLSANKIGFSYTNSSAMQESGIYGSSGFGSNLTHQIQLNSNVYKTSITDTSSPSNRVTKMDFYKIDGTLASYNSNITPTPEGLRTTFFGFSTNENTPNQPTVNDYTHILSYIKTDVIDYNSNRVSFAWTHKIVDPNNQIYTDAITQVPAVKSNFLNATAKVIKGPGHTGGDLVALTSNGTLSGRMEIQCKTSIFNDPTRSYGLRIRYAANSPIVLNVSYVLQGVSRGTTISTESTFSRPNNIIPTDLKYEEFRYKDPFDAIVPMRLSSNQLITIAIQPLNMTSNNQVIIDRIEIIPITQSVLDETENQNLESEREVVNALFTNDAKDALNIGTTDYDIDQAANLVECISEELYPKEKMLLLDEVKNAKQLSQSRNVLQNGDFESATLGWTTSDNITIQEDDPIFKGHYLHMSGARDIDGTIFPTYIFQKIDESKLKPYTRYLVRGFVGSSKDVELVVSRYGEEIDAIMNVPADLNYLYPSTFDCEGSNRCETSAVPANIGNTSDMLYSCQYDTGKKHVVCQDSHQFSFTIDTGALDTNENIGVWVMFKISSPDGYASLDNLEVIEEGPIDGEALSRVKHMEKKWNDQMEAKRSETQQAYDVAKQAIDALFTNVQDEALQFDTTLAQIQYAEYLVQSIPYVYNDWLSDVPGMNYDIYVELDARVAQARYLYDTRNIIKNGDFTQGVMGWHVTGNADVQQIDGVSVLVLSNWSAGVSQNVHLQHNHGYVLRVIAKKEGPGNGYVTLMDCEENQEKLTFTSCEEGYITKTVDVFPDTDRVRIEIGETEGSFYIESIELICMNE", "test": "ELISA"}, "[3]": {"target": "Bacillus thuringiensis subsp. israelensis Cry11Aa toxin (Bacillus thuringiensis subsp. israelensis) (UniProt P21256)", "test": "SPR"}, "[4]": {"target": "Bacillus thuringiensis subsp. israelensis Cry4Ba toxin (Bacillus thuringiensis subsp. israelensis)", "test": "SPR"}},
  "data": [
    {"substance": "Aedes aegypti cadherin receptor fragment CR7–11 (cadherin repeats 7–11) (domain or fragment)", "values": [
      {"measurement": "Kd", "setting": "[1]", "value": 14.8, "unit": "nM"},
      {"measurement": "Kd", "setting": "[2]", "value": 135, "unit": "nM"},
      {"measurement": "koff", "setting": "[3]", "value": 0.00252, "unit": "s⁻¹"},
      {"measurement": "Kd", "setting": "[4]", "value": 154, "unit": "nM"},
      {"measurement": "koff", "setting": "[4]", "value": 0.00203, "unit": "s⁻¹"}
    ]}
  ]
}
